# T1: SmcH-CC100 (Bacillus subtilis, UniProt P51834 400-774)
# T1 sequence: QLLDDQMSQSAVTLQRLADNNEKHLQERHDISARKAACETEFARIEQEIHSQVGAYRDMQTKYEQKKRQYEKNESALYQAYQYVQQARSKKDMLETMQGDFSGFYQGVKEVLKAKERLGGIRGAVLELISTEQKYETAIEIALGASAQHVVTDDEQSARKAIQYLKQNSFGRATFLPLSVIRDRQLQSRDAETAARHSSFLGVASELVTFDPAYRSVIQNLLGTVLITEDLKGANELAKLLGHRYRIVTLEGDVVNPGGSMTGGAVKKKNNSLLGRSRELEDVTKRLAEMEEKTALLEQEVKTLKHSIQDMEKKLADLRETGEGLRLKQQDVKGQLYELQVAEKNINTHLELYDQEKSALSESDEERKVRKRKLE
# Biological target: T1, SmcH-CC100
# Experiment: fluorescence anisotropy
binder,measurement,value
40 bp random-sequence dsDNA (dsDNA) DNA 1: TTAGTTGTTCGTAGTGCTCGTCTGGCTCTGGATTACCCGC DNA 2: GCGGGTAATCCAGAGCCAGACGAGCACTACGAACAACTAA,binding result,binds

# — article doi:10.1101/495820
